Results reported in patent US20220185863A1, “COMBINATION THERAPIES” (Shattuck Labs, Inc., priority 2019, published 2022).

B1: TIGIT-Fc-LIGHT: chimeric protein: extracellular domain of TIGIT, hinge-CH2-CH3 Fc linker, extracellular domain of LIGHT (SEQ ID NO: 61) (protein)
chain: MEWSWVFLFFLSVTTGVHSMMTGTIETTGNISAEKGGSIILQCHLSSTTAQVTQVNWEQQDQLLAICNADLGWHISPSFKDRVAPGPGLGLTLQSLTVNDTGEYFCIYHTYPDGTYTGRIFLEVLESSVAEHGARFQIPSKYGPPCPPCPAPEFLGGPSVFLFPPKPKDQLMISRTPEVTCVVVDVSQEDPEVQFNWYVDGVEVHNAKTKPREEQFNSTYRVVSVLTVLHQDWLSGKEYKCKVSSKGLPSSIEKTISNATGQPREPQVYTLPPSQEEMTKNQVSLTCLVKGFYPSDIAVEWESNGQPENNYKTTPPVLDSDGSFFLYSRLTVDKSRWQEGNVFSCSVLHEALHNHYTQKSLSLSLGKIEGRMDLQLHWRLGEMVTRLPDGPAGSWEQLIQERRSHEVNPAAHLTGANSSLTGSGGPLLWETQLGLAFLRGLSYHDGALVVTKAGYYYIYSKVQLGGVGCPLGLASTITHGLYKRTPRYPEELELLVSQQSPCGRATSSSRVWWDSSFLGGVVHLEAGEKVVVRVLDERLVRLRDGTRSYFGAFMV
B2: TIGIT-Fc-OX40L: chimeric protein: extracellular domain of TIGIT, hinge-CH2-CH3 Fc linker, extracellular domain of OX40L (SEQ ID NO: 60) (protein)
chain: MMTGTIETTGNISAEKGGSIILQCHLSSTTAQVTQVNWEQQDQLLAICNADLGWHISPSFKDRVAPGPGLGLTLQSLTVNDTGEYFCIYHTYPDGTYTGRIFLEVLESSVAEHGARFQIPSKYGPPCPPCPAPEFLGGPSVFLFPPKPKDQLMISRTPEVTCVVVDVSQEDPEVQFNWYVDGVEVHNAKTKPREEQFNSTYRVVSVLTVLHQDWLSGKEYKCKVSSKGLPSSIEKTISNATGQPREPQVYTLPPSQEEMTKNQVSLTCLVKGFYPSDIAVEWESNGQPENNYKTTPPVLDSDGSFFLYSRLTVDKSRWQEGNVFSCSVLHEALHNHYTQKSLSLSLGKIEGRMDQVSHRYPRIQSIKVQFTEYKKEKGFILTSQKEDEIMKVQNNSVIINCDGFYLISLKGYFSQEVNISLHYQKDEEPLFQLKKVRSVNSLMVASLTYKDKVYLNVTTDNTSLDDFHVNGGELILIHQNPGEFCVL

What was measured:
[1] = tested on: tumor infiltrating lymphocytes (TIL) of CT26 (colorectal carcinoma) tumors; test: Immune phenotyping of tumor infiltrating lymphocytes (TIL) by flow cytometry; assay type: in vivo, BALB/C mice; conditions: IP days 0, 3, 6; 300 mg ARC, 100 mg anti-PD-1; tumor collected day 7
From the text: FIG. 6A to FIG. 6G show the results of immune phenotyping of the tumor infiltrating lymphocytes (TIL) in BALB/C mice harboring CT26 (colorectal carcinoma) tumor allografts treated with ARC (TIGIT-Fc-OX40L or TIGIT-Fc-LIGHT) alone or the combination with anti-PD-1 (clone RMP1-14) antibody. The fractions (expressed as percentages) of total CD8^+ cells (FIG. 6A), total Perforin CD8^+ cells (FIG. 6B), total IFNγ^+ CD8^+ cells (FIG. 6C), total AH1-tetramer CD8^+ cells (antigen-specific CD8^+ cells) (FIG. 6D), total CD4±cells (FIG. 6E), total NKP46^+ NK cells (FIG. 6F) and total IFNγ±(NKP46^+ NK) cells (FIG. 6G) in the indicated cell populations in the dissociated tumor tissue as determined by flow cytometry analyses.
BALB/C mice were inoculated with CT26 (colorectal carcinoma) tumors, and when starting tumor volumes reached 30-60 mm^3 (indicating day 0), treatment was begun. Mice were treated via intraperitoneal (IP) injection on days 0, 3, and 6 with […] of either ARC (TIGIT-Fc-OX40L or TIGIT-Fc-LIGHT) or the combination of each ARC with […] of anti-PD-1 (clone RMP1-14). On day 7, mice were euthanized, tumor tissue was collected and dissociated, and analyzed by flow cytometry and calculated as percent cell types. The total % of CD8+ T cells detected in the tumor are similar between treatment groups (FIG. 6A).
The immunodominant CD8+ T cell response against CT26 carcinoma cells is directed against a tumor/self-antigen, GP70423-431, also known as AH1. To evaluate the T cell response against CT26, total AH1-tetramer CD8^+ cells were quantitated.
Other relevant cell types, including total % of CD4+ T cells, NKP46^+ NK cells, including the total IFNγ±NKP46^+ NK cells in the tumors were also quantitated. […] The IFNγ±cells were quantitated among NKP46^+ NK cells.

CT26 tumor = test: In vivo anti-tumor activity of TIGIT-Fc-LIGHT chimeric protein and anti-PD1 antibody in mice challenged with CT26 tumor; set-up: species or system mouse; conditions: monotherapy on days 1, 3, and 6, compared to vehicle only-treated mice
From the text: FIG. 5B is a Kaplan Meyer plot of survival and statistics of the CT26 tumor experiment of FIG. 5A. […] FIG. 5C and FIG. 5D includes data relevant to the graphs of FIG. 5A and FIG. 5B.

tumors [2] = test: In vivo anti-tumor activity of TIGIT-Fc-OX40L chimeric protein and anti-CTLA-4 antibody in tumor-inoculated mice
Method: The in vivo ability of combinations of the TIGIT-Fc-OX40L chimeric protein with anti-CTLA-4 antibodies (FIG. 3A to FIG. 3C) to target and treat tumors were determined.
(§1) Mice were inoculated with tumors and were treated with a vehicle, an antibody, the TIGIT-Fc-OX40L chimeric protein, or combinations of the TIGIT-Fc-OX40L chimeric protein and an anti-CTLA-4 antibody; in the combinations, the TIGIT-Fc-OX40L chimeric protein was administered before the antibody, the TIGIT-Fc-OX40L chimeric protein was administered after the antibody, or the TIGIT-Fc-OX40L chimeric protein was administered with the antibody. See, FIG. 3A for the dose schedules.
FIG. 3C includes data relevant to the graphs of FIG. 3A and FIG. 3B.

tumors [3] = test: In vivo anti-tumor activity of TIGIT-Fc-OX40L chimeric protein and anti-PD-1 antibody in tumor-inoculated mice
Method: The in vivo ability of combinations of the TIGIT-Fc-OX40L chimeric protein with anti-PD-1 antibodies (FIG. 4A to FIG. 4D) to target and treat tumors were determined.
as §1, with “anti-PD-1” for “anti-CTLA-4”, “antibody.” for “antibody. See, FIG. 3A for the dose schedules.”
FIG. 4C and FIG. 4D include data relevant to the graphs of FIG. 4A and FIG. 4B.

[4] = administered on days 7, 9, and 11, compared to vehicle only-treated mice and to days 12, 14, 16 schedule
[5] = administered on days 12, 14, and 16, compared to vehicle only-treated mice
[6] = compared to the dosing regimen-matched αCTLA antibody-treated mice
[7] = compared to the dosing regimen-matched αPD-1 antibody-treated mice

| Molecule | total AH1-tetramer CD8+ cells among the total CD8+ cells [1] | total CD4+ cells among the total mononuclear cells [1] | total IFNγ+ CD8+ cells among the total CD8+ cells [1] | total IFNγ+ cells among the total NKP46+ NK cells [1] | total NKP46+ NK cells among the total mononuclear cells [1] | total Perforin CD8+ cells among the total CD8+ cells [1] | survival (CT26 tumor) | tumor development (CT26 tumor) | survival (tumors [2]; [4]) | tumor development (tumors [2]; [4]) | survival (tumors [2]; [5]) | tumor development (tumors [2]; [5]) | survival (tumors [2]; [6]) | tumor development (tumors [2]; [6]) | survival (tumors [3]; [4]) | tumor development (tumors [3]; [4]) | survival (tumors [3]; [5]) | tumor development (tumors [3]; [5]) | survival (tumors [3]; [7]) | tumor development (tumors [3]; [7]) |
| --- | --- | --- | --- | --- | --- | --- | --- | --- | --- | --- | --- | --- | --- | --- | --- | --- | --- | --- | --- | --- |
| B1 | increased | increased | increased | increased | increased | increased | extended survival | slower tumor development | – | – | – | – | – | – | – | – | – | – | – | – |
| B2 | increased | increased | increased | increased | increased | increased | – | – | extended survival | slower tumor development | extended survival | slower tumor development | extended survival | slower tumor development | extended survival | slower tumor development | extended survival | slower tumor development | extended survival | slower tumor development |
